{
  "source": "patent US11499162B2",
  "about": "“Plants having increased tolerance to herbicides” (BASF SE, priority 2016, dated 2022)",
  "molecules": {"B1": {"name": "Y85LL88AF89AL92AY93LQ96TD128GM155VF157L: mutated TriA variant of SEQ ID NO: 2 (protein)", "chain": "MQTLSIQHGTLVTMDQYRRVLGDSWVHVQDGRIVALGVHAESVPPPADRVIDARGKVVLPGFINAHTHVNQILLRGGPSHGRQLLDWAANVALPGTKAMRPEDVAVAVRLYCAEAVRSGITTINDNAGSAIYPGNIEAAMAVYGEVGVRVVYARVFLDRMDGRIQGYVDALKARSPQVELCSIMEETAVAKDRITALSDQYHGTAGGRISVWPAPAITPAVTVEGMRWAQAFARDRAVMWTLHMAESDHDERLHWMSPAEYMECYGLLDERLQVAHCVYFDRKDVRLLHRHNVKVASQVVSNAYLGSGVAPVPEMVERGMAVGIGTDDGNCNDSVNMIGDMKFMAHIHRAVHRDADVLTPEKILEMATIDGARSLGMDHEIGSIETGKRADLILLDLRHPQTTPHHHLAATIVFQAYGNEVDTVLIDGNVVMENRRLSFLPPERELAFLEEAQSRATAILQRANMVANPAWRSL", "modifications": "Pseudomonas"}, "B2": {"name": "Y85LL88AF89AL92AY93VQ96TD128GM155VF157L: mutated TriA variant of SEQ ID NO: 2 (protein)", "chain": "B1 chain with L93V", "modifications": "Pseudomonas"}, "B3": {"name": "N70TQ71V: mutated TriA variant of SEQ ID NO: 2 (protein)", "chain": "MQTLSIQHGTLVTMDQYRRVLGDSWVHVQDGRIVALGVHAESVPPPADRVIDARGKVVLPGFINAHTHVTVILLRGGPSHGRQLYDWLFNVLYPGQKAMRPEDVAVAVRLYCAEAVRSGITTINDNADSAIYPGNIEAAMAVYGEVGVRVVYARMFFDRMDGRIQGYVDALKARSPQVELCSIMEETAVAKDRITALSDQYHGTAGGRISVWPAPAITPAVTVEGMRWAQAFARDRAVMWTLHMAESDHDERLHWMSPAEYMECYGLLDERLQVAHCVYFDRKDVRLLHRHNVKVASQVVSNAYLGSGVAPVPEMVERGMAVGIGTDDGNCNDSVNMIGDMKFMAHIHRAVHRDADVLTPEKILEMATIDGARSLGMDHEIGSIETGKRADLILLDLRHPQTTPHHHLAATIVFQAYGNEVDTVLIDGNVVMENRRLSFLPPERELAFLEEAQSRATAILQRANMVANPAWRSL", "modifications": "Pseudomonas"}, "B4": {"name": "Q71NL92AY93LQ96TD128G: mutated TriA variant of SEQ ID NO: 2 (protein)", "chain": "B1 chain with Q71N, L85Y, A88L, A89F, V155M, L157F", "modifications": "Pseudomonas"}, "B5": {"name": "L92AY93LQ96TD128G: mutated TriA variant of SEQ ID NO: 2 (protein)", "chain": "B1 chain with L85Y, A88L, A89F, V155M, L157F", "modifications": "Pseudomonas"}, "B6": {"name": "W87AL92AY93LF157L: mutated TriA variant of SEQ ID NO: 2 (protein)", "chain": "B3 chain with T70N, V71Q, W87A, L92A, Y93L, F157L", "modifications": "Pseudomonas"}, "B7": {"name": "W87FL92AY93LF157L: mutated TriA variant of SEQ ID NO: 2 (protein)", "chain": "B3 chain with T70N, V71Q, W87F, L92A, Y93L, F157L", "modifications": "Pseudomonas"}, "B8": {"name": "L92AY93LF157L: mutated TriA variant of SEQ ID NO: 2 (protein)", "chain": "B3 chain with T70N, V71Q, L92A, Y93L, F157L", "modifications": "Pseudomonas"}, "B9": {"name": "L92AY93VM155TF157L: mutated TriA variant of SEQ ID NO: 2 (protein)", "chain": "B3 chain with T70N, V71Q, L92A, Y93V, M155T, F157L", "modifications": "Pseudomonas"}, "B10": {"name": "D128G: mutated TriA variant of SEQ ID NO: 2 (protein)", "chain": "B3 chain with T70N, V71Q, D128G", "modifications": "Pseudomonas"}, "B11": {"name": "D128V: mutated TriA variant of SEQ ID NO: 2 (protein)", "chain": "B3 chain with T70N, V71Q, D128V", "modifications": "Pseudomonas"}, "B12": {"name": "L92AY93V: mutated TriA variant of SEQ ID NO: 2 (protein)", "chain": "B3 chain with T70N, V71Q, L92A, Y93V", "modifications": "Pseudomonas"}, "B13": {"name": "L92AY93I: mutated TriA variant of SEQ ID NO: 2 (protein)", "chain": "B3 chain with T70N, V71Q, L92A, Y93I", "modifications": "Pseudomonas"}, "B14": {"name": "W87HL92AY93LF157L: mutated TriA variant of SEQ ID NO: 2 (protein)", "chain": "B3 chain with T70N, V71Q, W87H, L92A, Y93L, F157L", "modifications": "Pseudomonas"}, "B15": {"name": "L92AY93LM155TF157L: mutated TriA variant of SEQ ID NO: 2 (protein)", "chain": "B1 chain with L85Y, A88L, A89F, T96Q, G128D, V155T", "modifications": "Pseudomonas"}, "B16": {"name": "M155L: mutated TriA variant of SEQ ID NO: 2 (protein)", "chain": "B3 chain with T70N, V71Q, M155L", "modifications": "Pseudomonas"}, "B17": {"name": "L88AL92AY93LF157L: mutated TriA variant of SEQ ID NO: 2 (protein)", "chain": "B1 chain with L85Y, A89F, T96Q, G128D, V155M", "modifications": "Pseudomonas"}, "B18": {"name": "D128P: mutated TriA variant of SEQ ID NO: 2 (protein)", "chain": "B3 chain with T70N, V71Q, D128P", "modifications": "Pseudomonas"}},
  "note": "Positions count from the first letter of the chain named. Names and notes keep the numbering of the source.",
  "data": [
    {"type": "biochemical", "conditions": "pH 7.2", "summary_of_the_method": "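% degradation measured against empty-vector control by UPLC-HR-MS, with product identity confirmed by exact mass and MS-MS. Conditions: 25 mM sodium phosphate pH 7.2, 30 °C, substrates at 1–10 nM. Enzyme source: TriA-expressing E. coli resting cells incubated with azines, melamine or atrazine.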", "units": {"Degradation in % of 6-cyclopentyl-N4-(2,3,4,5,6-pentafluorophenyl)-1,3,5-triazine-2,4-diamine": "%", "Degradation in % of Melamine": "%"}, "values": [
      {"molecule": "B1", "Degradation in % of 6-cyclopentyl-N4-(2,3,4,5,6-pentafluorophenyl)-1,3,5-triazine-2,4-diamine": 13, "Degradation in % of Melamine": 1},
      {"molecule": "B2", "Degradation in % of 6-cyclopentyl-N4-(2,3,4,5,6-pentafluorophenyl)-1,3,5-triazine-2,4-diamine": 13, "Degradation in % of Melamine": 6},
      {"molecule": "B3", "Degradation in % of 6-cyclopentyl-N4-(2,3,4,5,6-pentafluorophenyl)-1,3,5-triazine-2,4-diamine": 3, "Degradation in % of Melamine": 0},
      {"molecule": "B4", "Degradation in % of 6-cyclopentyl-N4-(2,3,4,5,6-pentafluorophenyl)-1,3,5-triazine-2,4-diamine": 85, "Degradation in % of Melamine": 0},
      {"molecule": "B5", "Degradation in % of 6-cyclopentyl-N4-(2,3,4,5,6-pentafluorophenyl)-1,3,5-triazine-2,4-diamine": 94, "Degradation in % of Melamine": 0},
      {"molecule": "B6", "Degradation in % of 6-cyclopentyl-N4-(2,3,4,5,6-pentafluorophenyl)-1,3,5-triazine-2,4-diamine": 12, "Degradation in % of Melamine": 3},
      {"molecule": "B7", "Degradation in % of 6-cyclopentyl-N4-(2,3,4,5,6-pentafluorophenyl)-1,3,5-triazine-2,4-diamine": 99, "Degradation in % of Melamine": 1},
      {"molecule": "B8", "Degradation in % of 6-cyclopentyl-N4-(2,3,4,5,6-pentafluorophenyl)-1,3,5-triazine-2,4-diamine": 97, "Degradation in % of Melamine": 43},
      {"molecule": "B9", "Degradation in % of 6-cyclopentyl-N4-(2,3,4,5,6-pentafluorophenyl)-1,3,5-triazine-2,4-diamine": 99, "Degradation in % of Melamine": 0},
      {"molecule": "B10", "Degradation in % of 6-cyclopentyl-N4-(2,3,4,5,6-pentafluorophenyl)-1,3,5-triazine-2,4-diamine": 0, "Degradation in % of Melamine": 0},
      {"molecule": "B11", "Degradation in % of 6-cyclopentyl-N4-(2,3,4,5,6-pentafluorophenyl)-1,3,5-triazine-2,4-diamine": 2, "Degradation in % of Melamine": 0},
      {"molecule": "B12", "Degradation in % of 6-cyclopentyl-N4-(2,3,4,5,6-pentafluorophenyl)-1,3,5-triazine-2,4-diamine": 58, "Degradation in % of Melamine": 0},
      {"molecule": "B13", "Degradation in % of 6-cyclopentyl-N4-(2,3,4,5,6-pentafluorophenyl)-1,3,5-triazine-2,4-diamine": 75, "Degradation in % of Melamine": 0},
      {"molecule": "B14", "Degradation in % of 6-cyclopentyl-N4-(2,3,4,5,6-pentafluorophenyl)-1,3,5-triazine-2,4-diamine": 18, "Degradation in % of Melamine": 0},
      {"molecule": "B15", "Degradation in % of 6-cyclopentyl-N4-(2,3,4,5,6-pentafluorophenyl)-1,3,5-triazine-2,4-diamine": 99, "Degradation in % of Melamine": 41},
      {"molecule": "B16", "Degradation in % of 6-cyclopentyl-N4-(2,3,4,5,6-pentafluorophenyl)-1,3,5-triazine-2,4-diamine": 0, "Degradation in % of Melamine": 4},
      {"molecule": "B17", "Degradation in % of 6-cyclopentyl-N4-(2,3,4,5,6-pentafluorophenyl)-1,3,5-triazine-2,4-diamine": 99, "Degradation in % of Melamine": 1},
      {"molecule": "B18", "Degradation in % of 6-cyclopentyl-N4-(2,3,4,5,6-pentafluorophenyl)-1,3,5-triazine-2,4-diamine": 0, "Degradation in % of Melamine": 0}
    ]}
  ]
}
